Source: US20230027639A1

Experiments:
[1] = target: anti-CD19 CAR on CD19 CAR-T cells (the extracellular binding domain of the CAR was FMC63scfv); experiment: flow cytometry on CD19 CAR-T cells, Biotinylated Human CD19 Fc Tag detected with PE anti-Biotin; percent CAR-positive cells, replicate 3
[2] = target: anti-CD19 CAR on CD19 CAR-T cells (the extracellular binding domain of the CAR was FMC63scfv); experiment: flow cytometry on CD19 CAR-T cells, Biotinylated Human CD19 Fc Tag detected with PE anti-Biotin; percent CAR-positive cells, replicate 2
[3] = target: anti-CD19 CAR on CD19 CAR-T cells (the extracellular binding domain of the CAR was FMC63scfv); experiment: flow cytometry on CD19 CAR-T cells, Biotinylated Human CD19 Fc Tag detected with PE anti-Biotin; percent CAR-positive cells, replicate 1
[4] = target: anti-CD19 CAR on CD19 CAR-T cells (the extracellular binding domain of the CAR was FMC63scfv); experiment: flow cytometry on CD19 CAR-T cells; mean ± SD of three parallel experiments
[5] = target: anti-CD19 CAR on CD19 CAR-T cells (the extracellular binding domain of the CAR was FMC63scfv); experiment: cell-based or functional assay
[6] = target: anti-CD19 CAR on CD19 CAR-T cells (the extracellular binding domain of the CAR was FMC63scfv); experiment: flow cytometry on CD19 CAR-T cells, biotin-labelled antibody detected with PE anti-Biotin; percent CAR-positive cells, replicate 1
[7] = target: anti-CD19 CAR on CD19 CAR-T cells (the extracellular binding domain of the CAR was FMC63scfv); experiment: flow cytometry on CD19 CAR-T cells, biotin-labelled antibody detected with PE anti-Biotin; percent CAR-positive cells, replicate 2
[8] = target: anti-CD19 CAR on CD19 CAR-T cells (the extracellular binding domain of the CAR was FMC63scfv); experiment: flow cytometry on CD19 CAR-T cells, biotin-labelled antibody detected with PE anti-Biotin; percent CAR-positive cells, replicate 3

CAR % [1] [%]	CAR % [2] [%]	CAR % [3] [%]	CAR % (mean of three measurements) [4] [%]	CAR % [6] [%]	CAR % [7] [%]	CAR % [8] [%]	Molecule	killing rate of CD19+K562 cells by CAR-T cells (LDH release), effector:target 1:1, mAb 5 µg/ml (16.0% without mAb) [5] [%]	killing rate of CD19+K562 cells by CAR-T cells (LDH release), effector:target 1:1, mAb 25 µg/ml (16.0% without mAb) [5] [%]	killing rate of CD19+K562 cells by CAR-T cells (LDH release), effector:target 5:1, mAb 5 µg/ml (51.5% without mAb) [5] [%]	killing rate of CD19+K562 cells by CAR-T cells (LDH release), effector:target 5:1, mAb 25 µg/ml (51.5% without mAb) [5] [%]
20.1	12.3	10.3	14.2	–	–	–	Biotinylated Human CD19, Fc Tag (ACROBiosystems, model CD19-H8259) (from UniProt P15391 20-291) (Fc fusion)	–	–	–	–
–	–	–	–	–	–	–	monoclonal antibody 3984-mab001-H (scFv) scFv: EIQLQQSGPELVKPGASVKVSCKASGYSFTDYTMYWVKQSHGKSLEWIGYIDPYNGGTNYSQRFKGKATLTVDKSSSTAFMHLNSLPSEDSAVYYCANTYDNYEFAYWGQGTLVTVSAGGGGSGGGGSGGGGSDIQMTQTTSSLSASLGDRVTISCRASQDISNYLNWYQQKPDGTVKLLIYYTSRLRSGVPSRFSGSGSGADYSLTISNLEQEDIATYFCQQGDTLPYTFGGGTKLEIN	16.1	6.5	39.1	32.1
–	–	–	47.9	47.9	48.5	47.2	biotin-labeled monoclonal antibody Bio-3984-mab001-H (scFv, biotin label (Sulfo-NHS-Biotin); labelled residues not stated) scFv: EIQLQQSGPELVKPGASVKVSCKASGYSFTDYTMYWVKQSHGKSLEWIGYIDPYNGGTNYSQRFKGKATLTVDKSSSTAFMHLNSLPSEDSAVYYCANTYDNYEFAYWGQGTLVTVSAGGGGSGGGGSGGGGSDIQMTQTTSSLSASLGDRVTISCRASQDISNYLNWYQQKPDGTVKLLIYYTSRLRSGVPSRFSGSGSGADYSLTISNLEQEDIATYFCQQGDTLPYTFGGGTKLEIN	–	–	–	–
